In the supplement of paper PMC10567573:

B1: TRIM14 (parent)
chain: REQADSCREQLDIMNDLSNRVWSI

Variants of: B1
Test: protein stability index of a GFP-peptide fusion (GPS, HEK-293T) (PSI 1-6); higher = more stable
Settings: c terminus: a fixed tail appended
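Further: lentivirally expressed fusions sorted by FACS into six bins by GFP to DsRed ratio, PSI derived from sequencing read proportions per bin multiplied by bin number.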

| Variant | protein stability index |
| --- | --- |
| N19C | 1.58 |
| N19D | 3.16 |
| N19A | 2.91 |
| D5L | 3.46 |
| D5Y | 1.2 |
| D5N | 2.88 |
| D5I | 2.84 |
| D5T | 1.99 |
| D5A | 1.95 |
| D5Q | 2.14 |
| D5C | 1.59 |
| D5R | 3.62 |
| D5W | 2.21 |
| D5G | 1.55 |
| D5K | 3.1 |
| D5S | 1.6 |
| D5F | 1.55 |
| D5E | 2.15 |
| D5M | 2.1 |
| D5P | 2.03 |
| D5V | 2.09 |
| D5H | 2.23 |
| S18R | 1.64 |
| S18F | 1.48 |

| Variant | protein stability index |
| --- | --- |
| S18Q | 1.63 |
| S18N | 2.14 |
| S18A | 2.29 |
| S18C | 2.3 |
| S18V | 1.99 |
| S18G | 1.83 |
| S18K | 1.87 |
| S18D | 2.8 |
| S18L | 1.73 |
| S18T | 2.05 |
| S18E | 2.75 |
| S18M | 2.01 |
| S18Y | 2.07 |
| S18H | 1.77 |
| S18W | 2.21 |
| S18I | 2.2 |
| S18P | 2.35 |
| A4D | 2.5 |
| A4Y | 2.21 |
| A4G | 2.59 |
| A4R | 2.31 |
| A4L | 2.57 |
| A4T | 2.93 |
| A4V | 2.36 |

| Variant | protein stability index |
| --- | --- |
| A4K | 2.52 |
| A4M | 3.03 |
| A4H | 2 |
| A4P | 1.76 |
| A4I | 2.29 |
| A4E | 2.52 |
| A4Q | 2.25 |
| A4C | 1.81 |
| A4N | 2.66 |
| A4F | 1.59 |
| A4S | 2.27 |
| A4W | 2.34 |
| L11I | 2.53 |
| L11E | 3.9 |
| L11K | 2.38 |
| L11D | 3.08 |
| L11N | 2.36 |
| L11R | 3.11 |
| L11V | 2.19 |
| L11P | 2.53 |
| L11M | 2.13 |
| L11Y | 1.73 |
| L11C | 2.17 |
| L11Q | 3.17 |

| Variant | protein stability index |
| --- | --- |
| L11G | 2.62 |
| L11F | 1.87 |
| L11A | 2.1 |
| L11W | 1.46 |
| L11T | 3.1 |
| L11H | 2.24 |
| L11S | 3.03 |
| R1W | 2.82 |
| R1S | 3.43 |
| R1V | 2.96 |
| R1K | 1.72 |
| R1T | 2.75 |
| R1P | 2.48 |
| R1L | 2.32 |
| R1Y | 2.11 |
| R1N | 2.56 |
| R1Q | 2.58 |
| R1M | 2.19 |
| N15G | 2.12 |
| N15Y | 1.96 |
| N15L | 2.91 |
| N15Q | 1.89 |
| N15I | 2.33 |
| N15H | 2.54 |

| Variant | protein stability index |
| --- | --- |
| N15R | 2.17 |
| N15S | 1.94 |
| N15T | 2.36 |
| N15W | 2.68 |
| N15M | 2.58 |
| N15C | 2.53 |
| N15F | 2.39 |
| N15K | 2.44 |
| N15D | 2.69 |
| N15A | 2.25 |
| N15P | 2.18 |
| N15E | 2.76 |
| N15V | 2.14 |
| Q3H | 1.87 |
| Q3D | 2.8 |
| Q3V | 1.24 |
| Q3I | 2.04 |
| Q3W | 1.88 |
| Q3G | 1.82 |
| Q3M | 1.75 |
| Q3F | 1.82 |
| Q3C | 2.08 |
| Q3Y | 2.23 |
| Q3L | 1.68 |

| Variant | protein stability index |
| --- | --- |
| Q3S | 1.77 |
| Q3K | 1.59 |
| Q3E | 3.01 |
| Q3N | 2.13 |
| Q3T | 2.11 |
| Q3P | 2.15 |
| Q3A | 2.48 |
| Q3R | 2.42 |
| S6D | 3.4 |
| S6H | 2.41 |
| S6V | 1.85 |
| S6P | 2.35 |
| S6E | 2.77 |
| S6K | 1.78 |
| S6Q | 2.21 |
| S6N | 2.68 |
| S6I | 2.35 |
| S6L | 1.93 |
| S6Y | 2.06 |
| S6T | 1.6 |
| S6F | 1.91 |
| S6A | 2.45 |
| S6G | 2.42 |
| S6R | 1.86 |

| Variant | protein stability index |
| --- | --- |
| S6W | 2 |
| S6C | 2.01 |
| S6M | 1.93 |
| Q10G | 2.18 |
| Q10F | 2.18 |
| Q10T | 2.39 |
| Q10V | 1.57 |
| Q10N | 2.24 |
| Q10H | 2.03 |
| Q10A | 1.74 |
| Q10E | 2.21 |
| Q10K | 2.16 |
| Q10P | 2 |
| Q10R | 2.38 |
| Q10I | 2.63 |
| Q10S | 1.87 |
| Q10W | 1.98 |
| Q10D | 2.74 |
| Q10Y | 2 |
| Q10C | 2.24 |
| Q10M | 1.81 |
| C7S | 3.21 |
| C7D | 3.5 |
| C7Q | 4.24 |

| Variant | protein stability index |
| --- | --- |
| C7I | 2.12 |
| C7P | 2.74 |
| C7G | 3.05 |
| C7R | 3.42 |
| C7L | 2.27 |
| C7H | 3.02 |
| C7T | 3.04 |
| C7V | 2.76 |
| C7Y | 2.2 |
| C7A | 2.86 |
| C7W | 2.23 |
| C7M | 2.52 |
| C7K | 3 |
| C7E | 3.96 |
| C7F | 2.21 |
| C7N | 3.52 |
| D16I | 1.77 |
| D16Q | 2.18 |
| D16E | 2.06 |
| D16V | 1.65 |
| D16P | 1.52 |
| D16G | 2.25 |
| D16C | 1.8 |
| D16H | 1.64 |

| Variant | protein stability index |
| --- | --- |
| D16K | 3.35 |
| D16L | 1.68 |
| D16F | 1.86 |
| D16R | 2.85 |
| D16Y | 2.01 |
| D16M | 1.61 |
| D16T | 1.99 |
| D16N | 1.63 |
| D16A | 2.28 |
| D16W | 2.04 |
| D16S | 2.19 |
| R8G | 2.68 |
| R8T | 2.44 |
| R8A | 2.47 |
| R8Q | 2.64 |
| R8H | 2.61 |
| R8V | 1.8 |
| R8C | 2.3 |
| R8Y | 1.54 |
| R8N | 2.51 |
| R8S | 2.41 |
| R8I | 1.79 |
| R8P | 3.02 |
| R8L | 1.89 |

| Variant | protein stability index |
| --- | --- |
| R8K | 2.29 |
| R8E | 3.19 |
| R8F | 1.6 |
| R8W | 2.53 |
| R8M | 2.17 |
| R8D | 3.4 |
| I13E | 3.46 |
| I13Q | 2.8 |
| I13S | 2.51 |
| I13G | 2.69 |
| I13W | 1.76 |
| I13P | 2.87 |
| I13R | 2.43 |
| I13V | 2.02 |
| I13K | 2.19 |
| I13M | 2.63 |
| I13T | 2.74 |
| I13D | 3.37 |
| I13C | 2.93 |
| I13H | 2.88 |
| I13Y | 2.04 |
| I13L | 1.72 |
| I13F | 1.9 |
| I13A | 2.45 |

| Variant | protein stability index |
| --- | --- |
| I13N | 2.92 |
| L17P | 2.28 |
| L17F | 2.13 |
| L17T | 2.7 |
| L17N | 2.56 |
| L17A | 2.46 |
| L17W | 1.85 |
| L17I | 2.59 |
| L17C | 2.53 |
| L17G | 2.96 |
| L17H | 2.71 |
| L17V | 2.68 |
| L17E | 3.3 |
| L17S | 2.72 |
| L17K | 2.59 |
| L17D | 3.18 |
| L17R | 2.25 |
| L17M | 2.63 |
| L17Q | 2.45 |
| L17Y | 2.1 |
| E2H | 1.53 |
| E2K | 1.83 |
| E2T | 2.13 |
| E2V | 1.98 |

| Variant | protein stability index |
| --- | --- |
| E2Y | 2.83 |
| E2I | 1.75 |
| E2G | 1.85 |
| E2N | 2.46 |
| E2M | 2.56 |
| E2W | 1.91 |
| E2S | 1.28 |
| E2D | 2.45 |
| E2A | 1.93 |
| E2Q | 1.63 |
| E2R | 1.66 |
| E2L | 1.25 |
| E2C | 1.95 |
| E2F | 2.92 |
| E2P | 2.33 |
| D12G | 1.77 |
| D12H | 2.05 |
| D12A | 2.05 |
| D12Y | 1.96 |
| D12M | 1.43 |
| D12T | 2.53 |
| D12K | 1.92 |
| D12F | 2.71 |
| D12C | 1.84 |

| Variant | protein stability index |
| --- | --- |
| D12V | 1.9 |
| D12S | 2.21 |
| D12P | 2.31 |
| D12E | 2.31 |
| D12W | 2.21 |
| D12N | 1.6 |
| D12Q | 1.59 |
| D12R | 2.06 |
| D12I | 2.24 |
| E9G | 1.38 |
| E9R | 1.85 |
| E9M | 2.66 |
| E9N | 2.05 |
| E9A | 2.03 |
| E9H | 1.48 |
| E9W | 3.53 |
| E9L | 2.75 |
| E9Q | 1.53 |
| E9Y | 3.54 |
| E9C | 1.84 |
| E9S | 2.6 |
| E9D | 2.77 |
| E9F | 2.81 |
| E9K | 1.66 |

| Variant | protein stability index |
| --- | --- |
| E9I | 2.44 |
| E9T | 1.95 |
| E9P | 2.3 |
| M14P | 2.93 |
| M14Y | 1.72 |
| M14F | 1.76 |
| M14I | 2.2 |
| M14C | 2.36 |
| M14V | 2.26 |
| M14E | 2.81 |
| M14R | 2.03 |
| M14H | 2.45 |
| M14D | 3.01 |
| M14W | 1.78 |
| M14K | 2.33 |
| M14Q | 2.79 |
| M14G | 2.26 |
| M14A | 2.07 |
| M14S | 2.81 |
| M14L | 1.99 |
| M14N | 2.98 |
| M14T | 2.5 |
